Source: patent US20260167734A1 (PROVIDENCE HEALTH AND SERVICES OREGON, published 2026)
Positions count from the first letter of the chain named. Names and notes keep the numbering of the source.

Experiments:
[1] = target: T1, soluble human Fas ligand (FasL) (human, UniProt P48023 103-281, limits assumed); assay: SPR, BIACORE 8K, multi-dose; M3T01 in column 'Ligand', Recombinant Human Fas Ligand in column 'Analyte'
T1 construct: also called sFasL; recombinant soluble FasL
T1 sequence: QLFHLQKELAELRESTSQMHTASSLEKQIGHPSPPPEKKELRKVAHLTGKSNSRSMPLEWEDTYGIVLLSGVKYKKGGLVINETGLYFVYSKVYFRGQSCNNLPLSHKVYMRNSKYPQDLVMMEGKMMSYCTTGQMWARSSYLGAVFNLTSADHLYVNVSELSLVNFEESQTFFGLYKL
Method: (§1) Binding of M3T01 to human FasL was measured by multi-dose SPR using BIACORE™ 8K. […] In another study, binding of M3T01 to soluble FasL (sFasL) was measured by ELISA.

[2] = target: T1, soluble human Fas ligand (FasL); assay: single-dose SPR
Text: Several variants of the M3T01 antibody were isolated and tested for binding affinity to human FasL using a single-dose SPR affinity measurement. Each variant clone includes the same CDR sequences as M3T01 but includes one or more amino acid substitutions in the framework region (FR) of the VH domain and/or VL domain. The variant sequences, substitutions relative to the M3T01 VH and VL domains, and measured binding affinity are listed in Table 2. The binding affinities reported in Table 2 are from a single-dose SPR study.

[3] = target: T2, cynomolgus macaque FasL, cell surface (cynomolgus macaque, UniProt P63308 1-280); assay: flow cytometry, HEK293T cells transfected with cynomolgus macaque FasL
T2 construct: Expressed on transfected HEK293T cells
T2 sequence: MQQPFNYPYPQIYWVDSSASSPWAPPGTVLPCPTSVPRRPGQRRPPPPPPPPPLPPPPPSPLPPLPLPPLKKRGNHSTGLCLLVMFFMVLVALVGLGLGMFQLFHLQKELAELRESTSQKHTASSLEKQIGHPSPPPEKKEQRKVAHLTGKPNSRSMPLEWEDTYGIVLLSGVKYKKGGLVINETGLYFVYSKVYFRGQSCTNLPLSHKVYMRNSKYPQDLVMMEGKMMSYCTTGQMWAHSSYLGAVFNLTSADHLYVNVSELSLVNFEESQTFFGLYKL
Method: (§2) FIG. 2B: Binding of M3T01 to cell surface FasL across multiple species (human, cynomolgus macaque, rat, and mouse). M3T01 staining of HEK293T cells transfected with vectors expressing FasL from various species was measured by flow cytometry.
(§3) Next, assays were performed to evaluate binding of M3T01 to cell-surface, membrane-bound FasL from a variety of different species. HEK293T cells were transfected with vectors expressing either mouse, human, rat or cynomolgus macaque FasL and binding by M3T01 was measured by flow cytometry.

[4] = target: T3, human FasL, cell surface (membrane-bound) (human, UniProt P48023 1-281); assay: cell-based or functional assay
T3 sequence: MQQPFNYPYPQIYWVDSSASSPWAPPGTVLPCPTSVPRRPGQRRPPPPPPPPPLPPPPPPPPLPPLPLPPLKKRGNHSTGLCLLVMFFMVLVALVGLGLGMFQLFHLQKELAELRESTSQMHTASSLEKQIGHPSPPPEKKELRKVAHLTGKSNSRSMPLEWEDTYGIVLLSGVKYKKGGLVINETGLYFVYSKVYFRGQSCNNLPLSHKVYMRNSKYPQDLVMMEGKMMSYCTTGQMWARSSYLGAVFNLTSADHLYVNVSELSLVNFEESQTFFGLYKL

[5] = target: T1, soluble human Fas ligand (FasL); assay: ELISA on soluble FasL
[6] = target: T1, soluble human Fas ligand (FasL); assay: multi-dose SPR, BIACORE 8K; multi-dose SPR using BIACORE 8K
Method: as §1

rat FasL, cell surface = target: T4, rat FasL, cell surface (rat, UniProt P36940 1-278); assay: flow cytometry, HEK293T cells transfected with rat FasL
T4 construct: Expressed on transfected HEK293T cells
T4 sequence: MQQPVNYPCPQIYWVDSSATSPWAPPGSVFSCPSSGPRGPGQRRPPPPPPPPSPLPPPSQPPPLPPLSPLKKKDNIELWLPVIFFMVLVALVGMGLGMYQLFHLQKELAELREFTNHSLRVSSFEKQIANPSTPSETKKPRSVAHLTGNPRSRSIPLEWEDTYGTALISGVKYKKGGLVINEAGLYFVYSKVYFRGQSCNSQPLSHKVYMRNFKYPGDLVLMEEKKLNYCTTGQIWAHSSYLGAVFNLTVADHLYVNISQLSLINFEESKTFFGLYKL
Method: as §2, §3

mouse FasL, cell surface = target: T5, mouse FasL, cell surface (mouse, UniProt P41047 1-279); assay: flow cytometry, HEK293T cells transfected with mouse FasL
T5 construct: Expressed on transfected HEK293T cells
T5 sequence: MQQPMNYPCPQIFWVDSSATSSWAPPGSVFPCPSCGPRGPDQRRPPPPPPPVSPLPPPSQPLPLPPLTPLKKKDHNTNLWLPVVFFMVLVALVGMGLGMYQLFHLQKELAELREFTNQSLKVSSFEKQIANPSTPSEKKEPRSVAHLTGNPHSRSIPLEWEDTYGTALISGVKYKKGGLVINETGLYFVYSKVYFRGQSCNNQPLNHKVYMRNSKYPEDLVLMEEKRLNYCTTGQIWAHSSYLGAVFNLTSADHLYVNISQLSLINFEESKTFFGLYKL
Method: as §2, §3

B1: M3T01 (antibody, V domains shown)
VH: QVQLVESGGGVVQPGRSLRLSCAASGFTFSTYGIHWVRQAPGKGLEWVAVIWYDGSDKFYADSVKGRFTISRDNSKNTLYLQMNSLRAEDTAVYYCARDRDNWNYFDYWGQGTLVTVSS
VL: DIQMTQSPSTLSASVGDRVTITCRASQSISSWLAWYQQKPGKAPKFLIYQASSLESGVPSRFSGSGSGTEFTLTISSLQPDDFATYYCQQYNSYITFGQGTRLEIKR
notes: Fully human IgG4/kappa with S228P; also called M27.2
koff [1]: 0.000235 s⁻¹
kon [1]: 242000 M⁻¹ s⁻¹
Kd [2]: 3.2 nM
binding result [3]: binds
inhibition of FasL-mediated apoptosis of Jurkat cells (annexin-V externalization, flow cytometry), IC50 [4]: 0.33 nM
inhibition of FasL-mediated apoptosis of Jurkat cells, potency relative to sCD95-Fc [4]: 310 fold
EC50 (read off the curve) [5]: ~0.02 nM
Kd [6]: 0.974 nM
binding result (rat FasL, cell surface): binds
binding result (mouse FasL, cell surface): binds

B2: M27.3 (antibody, V domains shown)
VH: B1 VH with N77D, Q82E, V93M
VL: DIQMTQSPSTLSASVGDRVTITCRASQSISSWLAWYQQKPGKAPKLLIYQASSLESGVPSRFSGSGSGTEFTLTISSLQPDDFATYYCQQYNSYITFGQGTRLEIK
notes: Variant clone of M3T01 with the same CDRs
Kd [2]: 1.96 nM

B3: M27.4 (antibody, V domains shown)
VH: B1 VH
VL: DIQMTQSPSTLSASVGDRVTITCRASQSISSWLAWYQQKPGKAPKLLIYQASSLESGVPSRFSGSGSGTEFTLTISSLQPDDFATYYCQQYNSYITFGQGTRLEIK
notes: as for B2
Kd [2]: 3.1 nM

B4: M27.5 (antibody, V domains shown)
VH: B1 VH with N77D, V93M
VL: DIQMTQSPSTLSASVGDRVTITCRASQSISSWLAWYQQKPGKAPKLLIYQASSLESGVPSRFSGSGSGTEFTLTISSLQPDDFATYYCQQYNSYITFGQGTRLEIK
notes: as for B2
Kd [2]: 3.44 nM

B5: M27.6 (antibody, V domains shown)
VH: B1 VH with N77D, Q82E
VL: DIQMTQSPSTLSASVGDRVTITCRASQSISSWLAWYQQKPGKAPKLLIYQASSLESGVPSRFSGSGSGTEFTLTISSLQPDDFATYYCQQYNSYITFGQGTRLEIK
notes: as for B2
Kd [2]: 2.12 nM

B6: M27.1 (antibody, V domains shown)
VH: B1 VH with N77D, Q82E, V93M
VL: DIQMTQSPSTLSASVGDRVTITCRASQSISSWLAWYQQKPGKAPKFLIYQASSLESGVPSRFSGSGSGTEFTLTISSLQPDDFATYYCQQYNSYITFGQGTRLEIK
notes: as for B2
Kd [2]: 1.36 nM
